Test results taken from US9896489B2, “Family of synthetic polynucleotide-binding peptides and uses thereof” (Eastern Virginia Medical School, priority 2012, dated 2018).

Assays:
H82 SCLC cells = experiment: H82 SCLC cell growth, hemocytometer cell counts; format: cell-based; conditions: 10^−12 M peptide
Procedure: (§1) The peptide was tested against SCLC cells in culture. The cell lines included H82, H146, and controls. The H82 cell line has amplified c-MYC genes and H146 has increased levels of expression of c-MYC. The controls were normal epithelial cells and HeLa cells (a cervical cancer cell line with no known changes in c-MYC).
H82 SCLC cells were grown in suspension in small cell culture wells in RPMI medium with 10% fetal bovine serum. At time 0, the TZIP peptide was added to the medium at a final concentration of 10^−12 M. Control cells received no peptide. The TZIP peptide was added as a stock solution of 200 μg in 200 μL of deionized water.

H82 cells = H82 cells treated with TZIP peptide as for cell counts
Procedure: Referring to FIG. 7, a subset of H82 cells was treated with the TZIP peptide and the dye trypan blue, which is excluded from live cells. The H82 cells were otherwise treated as previously described and H82 cells used as a control were untreated. The percentages of living cells are represented by solid lines, and the percentages of dead cells are represented by dotted lines.

HeLa cells = experiment: HeLa cell growth, hemocytometer cell counts; format: cell-based; conditions: treated as described for H82 cells
Procedure: This was expected based on the lack of changes in c-MYC in HeLa cell lines. HeLa cells were grown in suspension and either treated or untreated with the TZIP peptide as described above for the H82 cells. Points were taken at different times post treatment, and cells were counted using a hemocytometer. […] This difference was expected, as HeLa cells differ from SCLC cells in many aspects of tumor suppressor gene products and presence of oncogenes.

SCLC cells = experiment: Growth of SCLC cell lines treated with TZIP peptide; format: cell-based
Procedure: as §1

[1] = system: human prostate cancer cell lines; experiment: Growth of prostate cancer cells treated with TZIP peptide; format: cell-based
[2] = system: normal human epithelial cells; experiment: Growth of normal epithelial cells treated with TZIP peptide; format: cell-based
[3] = system: Tat transactivation of the HIV-1 LTR; experiment: Tat transactivation of HIV-1 LTR-luciferase in U-87 MG cells; format: cell-based; conditions: peptide added exogenously to the medium; clade B LTR and Tat
Procedure: The TZIP peptide's effect on Tat's ability to transactivate the HIV-1 LTR was tested. In this experiment, U-87 MG cells were transfected with the clade B HIV-1 LTR coupled to luciferase. They were also transfected to express Tat, clade B. In the absence of Tat transfection there is no luciferase activity. […] The results in FIG. 9B document inhibition of the HIV-1 LTR at low concentrations of peptide, levels which would be acceptable in humans.

U-87 MG cells = format: cell-based
KG-1C cells = format: cell-based
[4] = system: ALS ssDNA (GGGGCC hexanucleotide repeat expanded at C9ORF72); experiment: Electrophoretic mobility shift assay with ALS ssDNA; format: binding
Procedure: Infrared oligonucleotides representing a GGGGCC hexanucleotide repeat expanded at C9ORF72 in ALS patients were custom ordered and are referred to as ALS ssDNA. 4% polyacrylamide gel electrophoresis was performed using IR-labeled oligonucleotides and imaged using the Li-Cor Odyssey IR imaging instrumentation and software.
Electrophoretic Mobility Shift Assay-Various combinations of Purα, Purβ, TZIP, and IR-labeled oligonucleotides were prepared in the 5× Johnson binding buffer (Bergemann, Andrew D and Johnson, Edward M (1992), The HeLa Pur Factor Binds Single-Stranded DNA at a Specific Element Conserved in Gene Flanking Regions and Origins of DNA Replication. Molecular and Cellular Biology, vol 12:3 (1257-1265), incorporated by reference herein in its entirety), adjusted to 5 mM DTT, 5 mM EDTA, and 0.5% Tween 20. 4% polyacrylamide gel electrophoresis was performed on samples and imaged with the Li-Cor Odyssey instrumentation and software. Densitometry was performed on the DNA concentration course experiments using the Li-Cor Odyssey software.
A Kd value obtained for Purβ was complex and not readily interpretable.

[5] = system: FXS ssDNA (G-rich trinucleotide DNA repeats at FMR1); experiment: Electrophoretic mobility shift assay with FXS ssDNA; format: binding
Text: A GE Microspin GST purification module was used to purify GST-tagged Purα and Purβ from bacterial lysate. Polyacrylamide gel electrophoresis with SDS-Page gels and molecular markers were used to verify that GST, Purα, and Purβ were expressed and purified. Expressed proteins were detected using antibodies against Purα and Purβ, including monoclonal mouse anti-Pur antibody developed in Johnson laboratory (clone 10B12) and polyclonal antibody against Purβ (Abcam). Polyacrylamide gel electrophoresis with TBE buffer was used for gel-mobility shift assay. Infrared-labeled oligonucleotides representing G-rich trinucleotide DNA repeats at FMR1 in patients with Fragile X Syndrome (FXS) were custom ordered and are referred to herein as FXS ssDNA. Infrared-labeled oligonucleotide substrates in agarose and polyacrylamide gels were detected through the use of the Odyssey (LICOR) instrumentation and software. […] When Purα and Purβ are combined (FIG. 17), by increasing the amount of Purβ, the DNA is shifted more to the top of the gel. Therefore, there is more binding of the proteins to the DNA. […] In FIG. 19, TZIP enhances the mobility shift of ssDNA FXS in the presence of Purα.

B1: novel synthetic Purα agonist peptide, 89 aa, SEQ ID NO: 1, with cell transport sequence YARAKRRQARRQIR (peptide)
chain: LASTFVTRDNKRYFMDLKENQRGRFMRVSQVGTRGYRNSLTVSYSVAWLEFRTHLCKLIDEYAKLQYARAKRRQARRQIRQQQQQQQEE
H82 SCLC cells; after three days
  growth of treated cells (cell counts): no further growth of the treated cancer cells was evident
H82 SCLC cells; one day post treatment
  growth inhibition (cell counts): inhibitory effects of the peptide were evident
H82 cells
  cell killing (living/dead cells, trypan blue): killed TZIP-treated H82 cells
HeLa cells
  effect on cell growth: little effect on the growth of HeLa cells
SCLC cells
  inhibitory effect on growth, compared with other cell types: consistently showed the greatest inhibitory effects
[1]
  growth inhibition: effective at inhibiting growth of prostate cancer cells
[2]
  effect of treatment on normal cells: did not show any significant effects
[3]
  inhibition of Tat transactivation (luciferase): transactivation is inhibited over a broad range of low concentrations
U-87 MG cells
  effects on growth kinetics or morphology: did not display any effects on growth kinetics or morphology
KG-1C cells
  effects on growth kinetics or morphology: did not display any effects on growth kinetics or morphology
[4]; DNA concentration courses
  binding of ALS repeat (qualitative): strongly bind the ALS repeat in low concentrations
[4]; Purα and TZIP mixed
  effect of TZIP on Purα binding to ALS ssDNA: alter the binding activity of Purα
[4]; Purβ and TZIP mixed
  effect of TZIP on Purβ binding to ALS hexanucleotide repeat: greatly stimulates binding of Purβ
[4]; densitometry of DNA concentration course
  Kd: 0.55 nM
[4]; with Purα
  concentration at which TZIP functions cooperatively with Purα to enhance binding to the GGGGCC repeat: less than 1 μM
[5]
  binding / mobility shift of ssDNA FXS (qualitative): tightly binds the FXS trinucleotide expanded repeat
  order of binding ssDNA FXS: TZIP>Purα>Purβ
[5]; in the presence of Purα
  effect of TZIP on Purα binding to ssDNA FXS: greatly stimulates Purα binding
